Results reported in patent US20050163770A1 (CONNEX, published 2005).
Ends that are not written are not given here.

Legend:
[1] = biological target: T1, human zeta-chain on the surface of CD8+ T-lymphocytes and NK-cells (human, UniProt P20963 22-164); assay: flow cytometry on human PBMC gated for CD8+ T-lymphocytes and NK-cells
T1 construct: whole, on cells; also called extracellular domain of the human zeta-chain on intact cells
Procedure: FIG. 3: Flowcytometry-analysis of the zeta-chain specific binding activity of the 2-B-5 antibody on the surface of CD8⁺-T-lymphocytes and NK-cells. 100.000 mononucleated cells from peripheral blood of two different healthy donors were incubated with undiluted cell culture supernatant of the 2-B-5 hybridoma. Bound zeta-chain specific rat antibody was detected by a fluorescein (FITC) conjugated goat-anti-rat Ig (IgG+IgM) antibody diluted 1:100 in PBS. Triple color fluorescence analysis was carried out by applying a positive gate for CD8⁺ (Tricolor) and a negative gate for CD16⁺ (PE) cells thus allowing the detection of FITC-mediated fluorescence (filled lines) exclusively attributed to CD8⁺-T-lymphocytes (phenotype: CD8⁺, CD16⁻) without any contaminating signals from CD8⁺-NK-cells. Similarly, triple color fluorescence analysis was carried out by applying a positive gate for CD56⁺-(PE) and a negative gate for CD3⁺-cells (tricolor) thus allowing the detection of FITC-mediated fluorescence (filled lines) exclusively attributed to NK-cells (phenotype: CD56⁺, CD3⁻) without any contaminating signals from CD56⁺-T-lymphocytes. As isotype control (broken lines) culture supernatant of an antibody with the same isotype (rat IgM) but irrelevant specificity was used. […] Cells were analyzed by flowcytometry on a FACS-scan (Becton Dickinson).

[2] = biological target: T2, zeta-peptide-BSA-conjugate (not fully specified (residue 11); also: C-terminal Cys thiol coupled to BSA); assay: ELISA of rat hybridoma supernatants (diluted 1:1) on immobilized zeta-peptide-BSA-conjugate
T2 construct: also called zeta-peptide conjugated to bovine serum albumin
T2 peptide: QSFGLLDPKLC

[3] = biological target: T3, native zeta-chain from the lysate of CD8+ T-lymphocytes (human, UniProt P20963 22-164); assay: sandwich ELISA: zeta-chain from lysate captured by the antibody to amino acids 144-163, 2-B-5 at 1 ug/ml
T3 construct: Endogenous protein in a detergent lysate, captured on the plate by an antibody to the C-terminus; also called zeta-chain molecules from the T-cell lysate
Procedure: FIG. 4: Results of a Sandwich-ELISA confirming the reactivity of antibody 2-B-5 with native zeta-chain present in the lysate of the CD8⁺-T-cell lymphocytes. A zeta-chain specific antibody, which recognizes the amino acids 144-163 at the carboxy-terminus of the human zeta chain was coated for 12 hours to the wells of a 96 U-bottom plate, followed by blockade for one hour at room temperature with PBS/3% BSA. Subsequently the lysate of CD8⁺-cells was added undiluted and in several dilutions and incubated for one hour at room temperature. As negative control, the wells were incubated with PBS instead of the cell lysate. […] Bound 2-B-5 antibody was detected with a biotinylated mouse-anti-rat IgM antibody followed by an Avidin-peroxidase-conjugate. […] The colored precipitate was measured at 405 nm using an ELISA-reader.
A zeta-chain specific antibody (Santa Cruz Biotechnology, Cat-No 1124), which recognizes the amino acids 144-163 at the carboxy-terminus of the zeta chain was coated to wells of a 96 U-bottom plate (Nunc, maxisorb) at a concentration of 5 μg/ml. […] Bound 2-B-5 antibody was detected with a biotinylated mouse-anti-rat IgM antibody (Zymed, San Francisco, Calif., USA; Cat-No 03-9840; working concentration 400 ng/ml) followed by an Avidin-peroxidase-conjugate (Dako, Hamburg; Code-No P 03347; working concentration 1 μg/ml). […]

Measured: binding result

T3 sequence (P20963 22-164 limits assumed): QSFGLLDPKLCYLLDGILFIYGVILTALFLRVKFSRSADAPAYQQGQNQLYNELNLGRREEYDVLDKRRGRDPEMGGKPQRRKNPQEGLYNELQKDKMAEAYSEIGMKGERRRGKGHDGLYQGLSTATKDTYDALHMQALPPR
T1 sequence (P20963 22-164): as the sequence (P20963 22-164 limits assumed) above

B1: rat monoclonal anti-zeta-chain antibody 2-B-5 (rat IgM) (antibody, V domains shown)
VH: QVQLQQSGAELVKPGSSVKISCKASGYTFTSYDMHWIKQQPGNGLEWIGWIYPGNGNTKYNQKFNGKATLTADKSSSTAYMQLSSLTSEDSAVYFCARDWHYYSSYIRPFAYWGQGTLVTVSS
VL: DIQMTQSPASLSASPEEIVTITCQASQDIGNWLAWYQQKPGKSPQLLIYSATSLADGIPSRFSGSRSGTQYSLKISRLQVEDTGIYYCLQRYSNPNTFGAGTKLELK
notes: Rat IgM with kappa light chain; Used as hybridoma culture supernatant or purified by ion exchange chromatography; The constant regions are rat mu and kappa; also called 2-B-S; 2-B-5 hybridoma antibody
binds: [1] | [2] | [3]
